According to patent US20230212549A1, “COMPOUNDS COMPRISING A […] LIGAND AND USE THEREOF” (priority 2021, published 2023):
Bridge positions count the residues as written; N and C are the ends.

T1: Potassium Channel hERG (human) (human), Q12809
T1 chain: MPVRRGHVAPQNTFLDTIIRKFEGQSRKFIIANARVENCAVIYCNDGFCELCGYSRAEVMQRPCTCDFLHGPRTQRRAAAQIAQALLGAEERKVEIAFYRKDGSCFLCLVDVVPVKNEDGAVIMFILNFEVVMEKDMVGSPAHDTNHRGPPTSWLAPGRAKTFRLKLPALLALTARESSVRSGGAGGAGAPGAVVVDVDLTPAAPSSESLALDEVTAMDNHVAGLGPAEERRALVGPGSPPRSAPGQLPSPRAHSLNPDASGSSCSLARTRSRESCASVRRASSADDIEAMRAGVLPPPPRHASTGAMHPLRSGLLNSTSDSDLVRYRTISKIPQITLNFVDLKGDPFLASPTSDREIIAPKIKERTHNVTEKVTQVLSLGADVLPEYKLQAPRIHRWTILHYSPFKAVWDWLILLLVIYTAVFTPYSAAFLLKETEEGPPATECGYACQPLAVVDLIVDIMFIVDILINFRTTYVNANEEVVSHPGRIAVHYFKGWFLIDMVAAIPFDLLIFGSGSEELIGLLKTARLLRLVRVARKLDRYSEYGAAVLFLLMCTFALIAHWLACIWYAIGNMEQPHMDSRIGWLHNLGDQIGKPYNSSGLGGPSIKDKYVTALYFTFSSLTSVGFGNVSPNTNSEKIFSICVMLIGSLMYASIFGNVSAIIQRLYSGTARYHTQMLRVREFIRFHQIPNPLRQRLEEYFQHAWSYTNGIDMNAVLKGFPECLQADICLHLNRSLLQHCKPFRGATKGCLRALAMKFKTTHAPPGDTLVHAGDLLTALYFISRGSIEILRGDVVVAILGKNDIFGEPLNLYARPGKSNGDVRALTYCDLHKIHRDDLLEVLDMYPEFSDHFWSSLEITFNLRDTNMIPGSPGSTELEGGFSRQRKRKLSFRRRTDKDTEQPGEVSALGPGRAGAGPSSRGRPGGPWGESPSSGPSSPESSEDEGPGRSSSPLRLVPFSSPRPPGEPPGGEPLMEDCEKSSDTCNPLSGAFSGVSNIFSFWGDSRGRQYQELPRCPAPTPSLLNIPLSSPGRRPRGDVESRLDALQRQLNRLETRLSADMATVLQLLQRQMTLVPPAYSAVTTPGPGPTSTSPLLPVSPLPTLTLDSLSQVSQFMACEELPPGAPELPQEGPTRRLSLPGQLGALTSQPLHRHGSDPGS

T2: Ubiquitin carboxyl-terminal hydrolase 8, P40818
T2 chain: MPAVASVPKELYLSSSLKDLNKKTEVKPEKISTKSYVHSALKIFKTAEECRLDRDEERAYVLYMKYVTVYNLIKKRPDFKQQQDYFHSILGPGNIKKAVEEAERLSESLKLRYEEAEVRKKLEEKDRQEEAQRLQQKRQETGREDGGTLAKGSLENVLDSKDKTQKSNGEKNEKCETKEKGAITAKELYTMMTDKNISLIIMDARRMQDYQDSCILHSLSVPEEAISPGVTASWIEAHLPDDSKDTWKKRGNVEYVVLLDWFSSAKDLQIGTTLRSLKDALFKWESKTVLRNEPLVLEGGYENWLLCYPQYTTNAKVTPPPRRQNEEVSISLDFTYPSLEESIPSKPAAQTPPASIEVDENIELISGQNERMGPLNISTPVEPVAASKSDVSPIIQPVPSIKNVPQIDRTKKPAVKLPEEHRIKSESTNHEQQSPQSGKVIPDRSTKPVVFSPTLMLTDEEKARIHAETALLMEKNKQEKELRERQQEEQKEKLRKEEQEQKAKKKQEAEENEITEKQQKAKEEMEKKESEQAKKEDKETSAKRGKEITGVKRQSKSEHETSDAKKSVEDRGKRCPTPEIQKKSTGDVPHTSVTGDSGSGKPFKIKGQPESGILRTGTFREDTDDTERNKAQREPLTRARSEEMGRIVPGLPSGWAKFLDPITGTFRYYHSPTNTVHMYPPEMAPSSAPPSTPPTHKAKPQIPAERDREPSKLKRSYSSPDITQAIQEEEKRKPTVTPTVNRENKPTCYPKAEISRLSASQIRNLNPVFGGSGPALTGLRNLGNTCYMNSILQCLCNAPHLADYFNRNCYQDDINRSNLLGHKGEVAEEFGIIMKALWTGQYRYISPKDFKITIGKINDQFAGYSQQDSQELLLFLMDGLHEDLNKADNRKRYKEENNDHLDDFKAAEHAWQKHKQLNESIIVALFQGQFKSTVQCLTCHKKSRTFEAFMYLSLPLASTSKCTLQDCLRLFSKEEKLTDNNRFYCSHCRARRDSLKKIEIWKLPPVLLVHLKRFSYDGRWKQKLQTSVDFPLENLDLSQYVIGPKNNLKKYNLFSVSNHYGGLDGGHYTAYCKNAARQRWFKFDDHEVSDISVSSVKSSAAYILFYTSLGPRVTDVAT

T3: Acetylcholinesterase (h) (human), P22303
T3 chain: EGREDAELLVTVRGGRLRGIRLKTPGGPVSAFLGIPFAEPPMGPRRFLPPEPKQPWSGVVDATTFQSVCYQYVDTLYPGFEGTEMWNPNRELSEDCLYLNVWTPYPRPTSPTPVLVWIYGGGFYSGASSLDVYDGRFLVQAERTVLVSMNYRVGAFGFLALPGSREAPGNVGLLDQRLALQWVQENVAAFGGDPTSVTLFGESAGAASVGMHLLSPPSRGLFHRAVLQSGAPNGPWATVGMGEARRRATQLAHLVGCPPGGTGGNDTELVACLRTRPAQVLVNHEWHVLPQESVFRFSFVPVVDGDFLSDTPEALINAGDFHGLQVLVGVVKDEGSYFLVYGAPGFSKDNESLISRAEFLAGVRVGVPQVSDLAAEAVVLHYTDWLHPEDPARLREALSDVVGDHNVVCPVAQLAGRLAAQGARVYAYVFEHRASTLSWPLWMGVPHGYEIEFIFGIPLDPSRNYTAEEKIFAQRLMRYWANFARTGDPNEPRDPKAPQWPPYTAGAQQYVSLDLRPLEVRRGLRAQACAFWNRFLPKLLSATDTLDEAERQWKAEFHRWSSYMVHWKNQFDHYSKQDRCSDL

B1: Hex-[Cys(tMeBn(DOTA-AET))-Pro-Pro-Thr-Gln-Phe-Cys]-OH (peptide)
peptide: Hex-CPPTQFC-OH
modifications: bridge 1-7; not fully specified (bridges); printed as Hex-[Cys(tMeBn(DOTA-AET))-Pro-Pro-Thr-Gln-Phe-Cys]-OH
B2: Hex-[Cys(tMeBn(DOTA-PP))-Pro-Pro-Thr-Gln-Phe-Cys]-Asp-NH2 (peptide)
peptide: Hex-CPPTQFCD-NH2
modifications: bridge 1-7; not fully specified (bridges); printed as Hex-[Cys(tMeBn(DOTA-PP))-Pro-Pro-Thr-Gln-Phe-Cys]-Asp-NH2

Key:
[1] = biological target: T1, Potassium Channel hERG (human) (human), …; assay: radioligand displacement ([3H] Dofetilide), 10 µM; conditions: remark: other sources report otherwise
[2] = biological target: Ubiquitin carboxy-terminal hydrolase L1, P09936; assay: cell-based or functional assay
Ubiquitin carboxy-terminal hydrolase L1, P09936, sequence (P09936 whole entry): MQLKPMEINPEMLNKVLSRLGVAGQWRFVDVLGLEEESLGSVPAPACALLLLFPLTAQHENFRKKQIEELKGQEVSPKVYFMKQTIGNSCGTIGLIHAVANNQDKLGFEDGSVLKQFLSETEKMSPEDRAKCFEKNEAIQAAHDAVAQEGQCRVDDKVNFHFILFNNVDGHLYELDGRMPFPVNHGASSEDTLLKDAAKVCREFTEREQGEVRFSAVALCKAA

[3] = biological target: T2, Ubiquitin carboxyl-terminal hydrolase …; assay: cell-based or functional assay
DPP9, Q86TI2 = assay: cell-based or functional assay
DPP9, Q86TI2, sequence (Q86TI2 whole entry): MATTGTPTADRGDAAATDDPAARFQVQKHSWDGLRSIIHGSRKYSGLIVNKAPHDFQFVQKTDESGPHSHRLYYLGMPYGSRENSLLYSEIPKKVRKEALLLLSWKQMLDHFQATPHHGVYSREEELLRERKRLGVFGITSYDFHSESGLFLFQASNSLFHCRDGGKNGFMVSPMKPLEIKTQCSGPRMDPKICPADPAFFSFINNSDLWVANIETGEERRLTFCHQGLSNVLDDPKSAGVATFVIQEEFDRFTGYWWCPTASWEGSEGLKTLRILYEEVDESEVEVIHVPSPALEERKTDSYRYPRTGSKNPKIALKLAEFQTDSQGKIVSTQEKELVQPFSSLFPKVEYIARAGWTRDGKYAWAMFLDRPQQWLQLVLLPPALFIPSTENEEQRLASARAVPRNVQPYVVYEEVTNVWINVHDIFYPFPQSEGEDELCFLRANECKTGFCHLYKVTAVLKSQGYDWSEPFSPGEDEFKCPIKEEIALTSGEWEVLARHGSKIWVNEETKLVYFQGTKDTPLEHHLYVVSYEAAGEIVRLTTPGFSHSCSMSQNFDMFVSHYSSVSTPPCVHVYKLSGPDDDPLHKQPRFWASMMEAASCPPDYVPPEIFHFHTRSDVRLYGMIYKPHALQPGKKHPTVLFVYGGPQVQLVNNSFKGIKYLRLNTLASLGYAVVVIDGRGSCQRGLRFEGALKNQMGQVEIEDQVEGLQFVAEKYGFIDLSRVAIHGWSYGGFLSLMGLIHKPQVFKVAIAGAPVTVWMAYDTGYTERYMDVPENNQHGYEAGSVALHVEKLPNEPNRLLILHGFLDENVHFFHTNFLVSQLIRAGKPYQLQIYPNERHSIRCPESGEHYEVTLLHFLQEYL

[4] = biological target: T3, Acetylcholinesterase (h) (human), P22303; assay: cell-based or functional assay
[5] = biological target: PDE3A (h) (human), Q14432; assay: cell-based or functional assay
PDE3A (h) (human), Q14432, sequence (Q14432 669-1141 limits assumed): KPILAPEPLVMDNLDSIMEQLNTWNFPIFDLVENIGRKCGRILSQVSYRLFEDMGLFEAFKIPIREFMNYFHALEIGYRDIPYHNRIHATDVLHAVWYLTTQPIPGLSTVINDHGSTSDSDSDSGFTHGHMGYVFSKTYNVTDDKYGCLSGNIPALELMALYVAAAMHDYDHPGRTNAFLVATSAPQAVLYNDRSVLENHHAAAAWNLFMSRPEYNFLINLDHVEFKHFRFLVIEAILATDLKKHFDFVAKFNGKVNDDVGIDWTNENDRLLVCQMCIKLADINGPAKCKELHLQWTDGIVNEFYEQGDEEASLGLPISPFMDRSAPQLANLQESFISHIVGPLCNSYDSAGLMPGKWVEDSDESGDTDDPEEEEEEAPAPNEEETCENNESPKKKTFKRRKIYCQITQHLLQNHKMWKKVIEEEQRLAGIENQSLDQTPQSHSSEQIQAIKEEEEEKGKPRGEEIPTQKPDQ

Row | Binder | % Inhibition of Specific Binding [1] [%] | Percentage inhibition (%) at 1 µM [2] [%] | Percentage inhibition (%) at 10 µM [2] [%] | Percentage inhibition (%) at 1 µM [3] [%] | Percentage inhibition (%) at 10 µM [3] [%] | Percentage inhibition (%) at 1 µM (DPP9, Q86TI2) [%] | Percentage inhibition (%) at 10 µM (DPP9, Q86TI2) [%] | % inhibition of control enzyme activity, compound at 10 µM [4] [%] | % inhibition of control enzyme activity, compound at 10 µM [5] [%]
1 | B1 | 6 | -4 | 4 | 2 | 1 | -1 | -5 | 1 | -37
2 | B2 | 2 | -2 | 4 | -3 | 6 | -1 | 0 | -6 | -3
